From a protein production outcome set (Wang et al. 2014) come the findings set out here.

A short description of the series: label from the status in PepcDB records.

With “MIPTISDVSTVEEWRSVAKDIVQRDGDVNWRATIVDWPGLGYSARPKMDYDTDVMEKFVVDFMNSPESPMSQSGNDDLVIIGGGHAATLALRATQRGLLKPSAIAAVAPTWAGPLPIVFGRDSSMVSRYGMLRGTLRAPGVGWMMYNMLVSNEKSIESQYKSHVYADQTNVTDAIIQSRYELTKQKGSRYVPAAFLTGLLDPVSSREEFLQLFADLEGKLPVMVMSTKGAPKRSKAEMEALRGAKGVSKFVEVEGALLPQEEYPSLVAQELYNFLQETFAKC”, the protein production entry is given as “failed”. The entry for “MIQEIIAFLGRRGEFFYISVFMLLMFFIFLISWLIEPRRLINGVLFTIFFISVFAWITVMINKSTSRGLQRAYNLLLLIVFFGIILILVFAWLFLFWNAYFVWKYESHTLPNLLTLFSGFIALIFSVIFILGPGRYLPHWLSALLASIPAIAIYLGLVLYNFLVNLLLYQIYPRHYKQDYLIVLGAGLINGDQVSKLLAARINRAIQFSNRQYQKGRKRPIIIMSGGQGPDEKVPEALAMAKFAQHRGVSPDHILIEDQSKNTYQNMLFSKQLATNDFGGPNFKATFFSNNYHIFRAALLAKEVGLKANGVGAFTRLYYLPNAIIREFAGVFVMHKRRHFVIMGVIVLFFILQAILAAAGIVKFNVI” is “failed”. The entry for “MIQLRAISRGMICGLLLSQLWSCSSTPLEPTAIEVDALFDDSLFKPVTNIPSVEDIFSLPSSVAVDVKRTYDRYAISTKNPLAVHEWLASYINANQSNGHSDFRYQDNLTQTASETFEQRAGNCMSLVVMTSALADIFNIGTEFQDIAIEPVWDKQGDFYLINGHVNLRLLPAQSVHTVYVSTHAILVDFMPERALRGLAKVQINRQTLTAMFYNNMAAESLVEGDLDHAYALVKAGLKSGHFSPALNTLAVIYRHKGDEKRAEQVYRYALKFDPDDMTTLFNLAVILDNQGRLEEWAQIHKKLELARIRNPYYYYDMGEQAYDEHQYREALAWYQRAVDKADYRHEFFFGLSRTYWALGDEKRAKQNMEKALALSREAADKHRCQAKLQAMRQH” is “failed”; for “MIQTKDIIELTDTYGANNYHPLPIVISKAEGVWVEDPEGNRYMDLLSAYSAVNQGHRHPKIINALIDQANRVTLTSRAFHSDQLGPWYEKVAKLTNKEMVLPMNTGAEAVETAIKTARRWAYDVKKVEANRAEIIVCEDNFHGRTMGAVSMSSNEEYKRGFGPMLPGIIVIPYGDLEALKAAITPNTAAFILEPIQGEAGINIPPAGFLKEALEVCKKENVLFVADEIQTGLGRTGKVFACDWDNVTPDMYILGKALGGGVFPISCAAANRDILGVFEPGSHGSTFGGNPLACAVSIAALEVLEEEKLTERSLQLGEKLVGQLKEIDNPMITEVRGKGLFIGIELNEPARPYCEQLKAAGLLCKETHENVIRIAPPLVISEEDLEWAFQKIKAVLS” it is “not failed”.

Consider “MIQVGDRFYDQAIVQTMGARAAEAVGLSDRPELSFAVCLSDPAEFLALLLAIREAGASVLPIHPSTPRAAARRLAIDLGCHRLVTDELAVEDLGAEDPGPGGLLQTTSGTTGEPKRIARSWAEIDREIDSYVATFVAPQDMTPLIACPITHSYGLICGVLVALRRGQVPHILGTANPKYLIARLRQTRQPLLYSSPAMLHAIARLLPAGEMIHAAMTSGTLLPDQWLMTIRARTTHLFQQYGCSEAGCVAINPNLSASGDMGAPLPHLRVEAGDTDQPREIVVHVGDRAIRTADLGYTKADGTLVFVGRLDDTINVSGLNVYPKEVEDVVMAMPGVTDAVVFRRLDSLAGERVAVAFSAEHSIAPADLRDWCIKNLAAHQVPMETVRLPRLPRQANGKISRREIAALHAEGRLELLAEETAA”, for which the protein production result is “failed”.

With “MIRAAAKFSREAAATIRGRTISVRGNLIRYSTPLRLIHGEISVPNANHVAIQMVNYALSHARSQKSDESYAQGMLVLEQCLGNQPNDDQVSHDSKATVLLAMSDLLYESGNSSEAIERLKQVMTLTHSSLAIRVVAVEALVGLLIQSGQDDASLDVADEFLKLVKESGHENLQGVVATVKAIKGLAELVKGNIESAESLFRGLENHESCKGNIALSYGEYLHATGNFELAKEMYQKAIQGVTETKESMCSCNMNLKAVSLAATFALGQLESHIGNFGVAEKTLTDALTKTEEHYGDNHPKVGVILTAVALMYGNKAKQERSSSILIQEGLYRKALELMKAPPLDSKGIINMENQEVIALARAGYAELLLIQENRKSEGEKMKSWAESAWRNKRISLSEALTLSEPLGKVAIIDARTTRVL”, the protein production entry is listed as “failed”. Take “MIRAASDDPAGVDELVAAIAPGLAGLGLPVINRREVVLVTGPWLAGVSGVRAALAERLPQRRFVETAELGPGDAPVAVVFVVSAATALTESDCVLLDTAAEHTDAVVAVVSKIDVHRGWRDVLTSNRDRLAARASRYARVPWVGAAAAPELGEPYLDDLVAAIQKQLADPAVARRNMLRAWESRLLMVARRFDGDAQSAGRRARVDALRQQRRTVLRQGRQSKSEHTIALRAQIQHARVKLSYFARNRCSLLRVELQEHVAGLSRKDIARFAAYTRGRVQEVVAEVGEGAVAHLADVAQLLGVPVQPPVLENLPAVLPTVVAPPLTSRRLEIRLTTLLGAGFGLGIALTLSRLVAGLTPGLAASGMVAGVAIGLAVTAWVVNARALLHDRVVVDRWTGEVTASLRSVVEQLVATRVVAVETLLSTAISERDDAENARVADQVSIIDGELREHAVAAARAAALRDREMPAVRAALEAVRAELGEPGAPTTGLF”: the protein production entry is “failed”.

For the sequence “MIRCLHVLYVRHVMLMSTIHHTKRTLQPYFALVRAPFLVFTAIVILLPAAAAAEAGILNVTNTLLAFGSVLAAHVAVNILNLASDYRTGIDEATDETPYSGGNDVLVSGTLSYRRALAAGVIAILASALFVVPLVSQFGGIVLLFYGVGTVLVVGYTDVFARIGLGEFACGAGLTFLPTVAVGYIQAGTFPESVLYLSVPMFLVGFNLLLLNEFPDVEADRTNGRVNIPVVLGRQTAGYIYFGLVGVLVASLLYPIATGALPATVAVAILPIALLAPIFRTVVLEGNGDLTDDELGNHILWTQTTIVALAVGMAAAAVL”, the protein production result is on record as “failed”.

Consider “MIRFIGNNRRNLITALILYLLTLVPIYVFLFSNGYLNFYGPNLPLFSGKEVEHLLAASIYNPEYGFSVNDGIYFLYLLIFTSLGIYNIIILYKIFLIITFSITFLLLYTMINKAINIFKISRYKSLSLIIGVLFFLLNPLYLEYVAFNFYNLIWGVIIFSYILIKLIDIVVNDKNVTKLDILKSGIALGFSGLMDPRLYIWGSYILILTFIIVIIIKPRLILKLIKYLSLTYISSLPIIAYIYYLFVYPSLITQASTINAITVPAYRPDTYSYIATWSENSLLFNVFAFINSEWTSIVYAPPSILFYPRTQWWFFPHFGNNSLILLPPGIITYIWLASLYIFFIVAALALFDRKRTLASSLLFIPMLLIISLSAGTNVPIKEFVYLLEIDPSKLPIVGGIFATTFAIPYYAEVMALPFASYLSILGTNYLLNRINKEILKKIAVSIIIVLAVFASWQYFNGTLYPSEVTGSFPGNSISLEGYYYPLNPPPQWVHVMNLLSTSRESVRNVKN”, for which the protein production entry is on record as “failed”.

In the case of “MIRKFSLIMATYGRKDEVGCFLESLMNSNYPMDKVEVIIVDQNKEIDLEPIISKYKEKIKVVHIKSNERGLALNRNKGLEIATGDIIAFPDDDCEYLVDTLNIVNNYFENEHCDLLMGRIVERNGEDSLREWPKEKIEINKNNFYTKCSSVTMFLDSKKCFVKFNDQLGAGKYFGACEDADLIYKNCKKGLKIIYNPELQIYHPHYDSNSNMDDKKIYSYGLGFGAMVKSNFDFSMLILFIKAEGYHFLKSLIYLITFKTTKSKRSWLAFKSRIKGFFEYKN”, the protein production entry is “failed”.

With “MIRKKQTEKPSEWDPPAPSTVYIKIKNIPYETFKTKLNQGLVTTDLDQIRYRLEKHIYCCGVCSKHVNGYCVITNRKAEPGWICKSFVPKEEFIYLDSRPDRKDPAEFRYLSETGLEKDYIESAGARERRHGNEGTKALYDEGVTLYRQGRLKLALEAFDSVLEANPLDFAALFHKGNALLKLKRYEEALEVFERASEINQENAGLWTNLGFIFTKLERFRDSLEAFEKSISLNPVQKNAWEGRDAVIARVRLCEERLRESEEALKKNPEDPDTLFKIGKIHLRLGEQEKAIQAFKKALEIKPENAEAWQFRGKVLFKAGSEKEALHAFEKATRLKPDYAEAWFEKGNAFLKLENLKGAENAFKIAARLWDSKGIKSKAESARDKVKRLHSSN”, the protein production result was “failed”. In the case of “MIRLSNENTIFFMDKENVPIASCQSGDTVIFETKDCFSDQITNEEQALTSIDFNRVNPATGPLYVEGARRGDMLEIEILDIKVGKQGVMTAAPGLGALGESLNSPTTKLFPIEGDDVVYSTGLRLPLQPMIGVIGTAPPGEPINNGTPGPHGGNLDTKDIKPGTTVYLPVEVDGALLALGDLHAAMGDGEILICGVEIAGTVTLKVNVKKERMFPLPALKTDTHFMTIASAETLDAAAVQATKNMATFLANRTALSIEEAGMLLSGAGDLYVSQIVNPLKTARFSLALHYFEKLGVDLCN”, the protein production entry was “not failed”. With “MIRNIVFDLGGVLIHLNREESIRRFKAIGVADIEEMLDPYLQKGLFLDLESGRKSEEEFRTELSRYIGKELTYQQVYDALLGFLEEISAEKFDYIDSLRPDYRLFLLSNTNPYVLDLAMSPRFLPSGRTLDSFFDKVYASCQMGKYKPNEDIFLEMIADSGMKPEETLFIDDGPANVATAERLGFHTYCPDNGENWIPAITRLLREQK”, the protein production entry is reported as “not failed”.

As for “MIRRLLRMVRGRTGQRLPDGGIQQDEASKIETAGDSDAREQRAADSDTTREMGTDTGTGLSTGRFVDENVRLLLNGLSQPTFVLDAEGEVVAWNEALAELTGATRDEAVGHDHASEMFYPDGRRAKTLADKVLEHPETVHEEYDVELEAPEMGRVADTSTMLDQYGDEKHIYFAATPQYRDGELVGVVETVIDRTEEVERRLAIERLVGTLGSTLESLRSGELDARAELEDEHAAALDDELLDVVDALNAFAEEFQTLSGRVEQQADRLDDAVDRVVEAAAEISDAVGEQNELVDDAVSEMQTFSAQMEEVAATAQDVDEAASDAKETAEHGLETGQDAREAAKEVTDISEELVDDITALQARMDDIESVVEVVSDVADQTNILALNANIEAARADESGEGFAVVADEVKSLADETQSHTDDITDSIEKLREQTDRTVSAAMTSSERVDRADQRIQEMFDAFEDIADAVEAAADGIAEVAQANDDQAASIEEVTATLETVREHSERAETAAEDVESAATSQAESIDALIKRVERLREGTADAADAA”, the protein production entry was “failed”. The entry for “MIRSLLLASAACALAFPAAAETVAIVNARLEPVSSPAIPNGTLVIKDGKIAALGASIQVPAGARVIDAKGGVVTPGLIAPSSNLGASEISGVRETRDDGTGSALSAAFDISYGVNPASTFLGLARDGGITGSAVTPVLSGTGGGAHEHADDGVVEEMTAGAHGDGDPPLFGGQAAFIRLKAGSPDIVEARKLAVTVSLGESGARAAGGSRGANLVLLRSALEDARAFASRRAAFEQGATRDFGLSRLDLQALIPVVQGKTPLLIRVSRAADIRQALKFAAEERIKIVLEGVEEGWMVADEIAKAGVPVILDPQDDLPGSFETLGSRLDNAARLHAAGVSVAINGSRDFNNLRQERLNAGLAVAHGLPYPAALAAVTLVPARIWGQADKVGSLEVGKLADVVVWNGDPLETTSWPTAVLIGGVEQPKDGRHEQLKARYAAGDQNGYPPAYR” is “failed”; for “MIRVGYLGPEATFTNMAVSRFFPEAEHVPYRTIPDCMDAAANGNVDYAVVPLENAIEGSVNITIDYLVHEQPLSIVGEITVPIQQHLLVHPQYAEVWEEVYAVHSHPHAIAQCHKFLNEELKGITARDMTSTSAAAQYVKEHPEEKIAAIANEAAAEKYGLTIVRRSIHTHKNNHTRFLVLHKKKKAILSNNGENRGEKTTLMITLPADYAGALYQVLSAFAWRKLNLSKIESRPMKTGLGNYFFLIDVDKAYDDVLLPGVTMELEALGFSVTVLGSYSSYWL” it is “failed”; for “MISAGDFKNGVTFELDGQIFQVIEFQHVKPGKGAAFVRTKLKNIVTGATIEKTFNPTDKMPKAHIERKDMQYLYNDGDLYYFMDTETFEQLPLGKDKIGDALKFVKENEIVKVLSHKGNVFGIEPPNFVELEVTDTEPGFKGDTATGATKPAIVETGASIKVPLFVNKGDIIRIDTRTGEYMERV” it is “not failed”.
